From PMC4942675 (Molecular Cell, 2016)
Changes are numbered by the printed parent chain. Read-outs that look alike come from different tables or passages of the source. Each block holds one binder with its values, some of them ahead of it.

Key:
[1] = biological target: T1, S. cerevisiae Exo9 (nine-subunit exosome core, no Rrp44 subunit) (S. cerevisiae, UniProt P46948;Q05636;P53256;P25359;P48240;Q12277;P38792;Q08285;P53859); assay: MST
[2] = biological target: T1, S. cerevisiae Exo9 (nine-subunit …); assay: pull-down
[3] = biological target: T1, S. cerevisiae Exo9 (nine-subunit …); assay: pull-down; remark: listed apart in the source
[4] = biological target: T2, Rrp43 (subunit of Exo10 in the crystal structure) (S. cerevisiae, UniProt P25359); assay: crystal structure
T2 sequence: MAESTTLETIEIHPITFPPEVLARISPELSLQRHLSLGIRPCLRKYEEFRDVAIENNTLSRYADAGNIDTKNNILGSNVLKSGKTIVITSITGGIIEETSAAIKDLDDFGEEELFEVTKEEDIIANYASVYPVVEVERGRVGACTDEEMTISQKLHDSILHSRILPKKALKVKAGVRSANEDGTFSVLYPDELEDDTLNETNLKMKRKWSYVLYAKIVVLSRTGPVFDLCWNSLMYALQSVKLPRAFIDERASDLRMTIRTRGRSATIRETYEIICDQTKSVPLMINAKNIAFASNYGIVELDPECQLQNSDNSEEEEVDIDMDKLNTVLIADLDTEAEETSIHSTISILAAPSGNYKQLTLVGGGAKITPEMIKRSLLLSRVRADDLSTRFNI

B1: GFP-Ski7_(exomut-1) (Trp125Asp, Ile128Asp) (domain or fragment)
chain: DDKLNLEESDKADKEMNHYCFLKNDPCINQTDDFAFTNFIIKDKKNSLSTSIPLSSQNSSFLSLKKHNNELLGIFVPCNLPKTTRKVAIENFNRPSPDDIIQSAQLNAFN
Kd [1]: 50 nM

B3: GFP-tagged Ski7exo (domain or fragment)
chain: B1 chain with D10W, D13I
Kd [1]: ~5 nM

B6: GFP-tagged Rrp6exo (GFP-Sumo-Rrp6C, Rrp6 residues 518-693) (domain or fragment)
chain: EATPIPSSETKADGILLETISVPQIRDVMERFSVLCNSNISKSRAKPVTNSSILLGKILPREEHDIAYSKDGLPNKVKTEDIRIRAQNFKSALANLEDIIFEIEKPLVVPVKLEEIKTVDPASAPNHSPEIDNLDDLVVLKKKNIQKKQPAKEKGVTEKDAVDYSKIPNILSNKPG
Kd [1]: ~10 nM

The next lines start with the values.

binding result [2]: binds
B2: GFP-Ski7_(exomut-2) (Phe149Asp, Phe151Asp, Phe154Asp) (domain or fragment)
chain: B1 chain with D10W, D13I, F34D, F36D, F39D

binding result [3]: binds
B4: Ski7 residues 116-235 (Exo9-interacting domain) (domain or fragment)
chain: DDKLNLEESWKAIKEMNHYCFLKNDPCINQTDDFAFTNFIIKDKKNSLSTSIPLSSQNSSFLSLKKHNNELLGIFVPCNLPKTTRKVAIENFNRPSPDDIIQSAQLNAFNEKLENLNIKS

binding result [2]: binds
B5: GFP-Ski7_(exomut-3) (Ile189Asp, Phe190Asp) (domain or fragment)
chain: B1 chain with D10W, D13I, I74D, F75D

binding result [4]: binds
B7: Mtr3 (subunit of Exo10 in the crystal structure) (natural protein)
chain: MNVQDRRRLLGPAAAKPMAFSNTTTHVPEKKSTDLTPKGNESEQELSLHTGFIENCNGSALVEARSLGHQTSLITAVYGPRSIRGSFTSQGTISIQLKNGLLEKYNTNELKEVSSFLMGIFNSVVNLSRYPKSGIDIFVYLTYDKDLTNNPQDDDSQSKMMSSQISSLIPHCITSITLALADAGIELVDMAGAGEANGTVVSFIKNGEEIVGFWKDDGDDEDLLECLDRCKEQYNRYRDLMISCLMNQET
